Experimental data reported in the supplement of paper PMC10219994.
± gives the standard deviation of the averaged measurements.

B1: library; a variant is named by its letters at N, in order (parent)
chain: GAGACCGCAACTGAAAAGTTGTGGNNNNNATAGTGAGTCGCTGCCTGCAAAGACACAACT

Variants of: B1
Experiment: ligation selection enrichment (abundance after / before one-round selection) (fold); higher = more template-directed ligation activity
Details: with T7Psub CACGGAUGCUAAUACGACUCACUAUA; MgCl2 25 mM; 42 °C; 4 h; pH 8.5
In short: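 In each of two independent experiments, 6 μM RNA substrate was reacted for 4 h at 42 °C with 0.75 μM of a T7-transcribed RNA ligase library randomized at five core positions, in buffer containing 50 mM EPPS pH 8.5 and 25 mM MgCl2. Only reads scoring ≥30 in quality at all randomized positions were counted after MiSeq sequencing. Each enrichment value is the ratio of abundance after ligation to abundance before ligation.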

GTCGC and TTCGC are within error of each other in ligation selection enrichment: 0.371 ± 0.033 for the first, 0.331 ± 0.0077 for the second.

Going from CTCGC to ATCGG, the ligation selection enrichment rises from 0.141 ± 0.0066 to 0.801 ± 0.021.

GTCGG and TTCGG are within error of each other in ligation selection enrichment: 0.443 ± 0.054 for the first, 0.397 ± 0.024 for the second.

Going from CTCGG to ATCGT, the ligation selection enrichment rises from 0.161 ± 0.036 to 0.723 ± 0.28.

GTCGT and TTCGT are within error of each other in ligation selection enrichment: 0.297 ± 0.13 for the first, 0.267 ± 0.029 for the second.

CTCGT and ATCTA are within error of each other in ligation selection enrichment: 0.216 ± 0.13 for the first, 0.203 ± 0.01 for the second.

TTCTA and CTCTA are within error of each other in ligation selection enrichment: 0.183 ± 0.035 for the first, 0.182 ± 0.031 for the second.

Going from GTCTA to TTCTC, the ligation selection enrichment falls from 0.177 ± 0.024 to 0.0957 ± 0.032.

First: ATCTC
Second: CTCTC
The ligation selection enrichment of the first is lower: 0.078 ± 0.025 for the first, 0.116 ± 0.0082 for the second.

Compared with GTCTC, TTCTG is higher in ligation selection enrichment: 0.116 ± 0.027 for the first, 0.954 ± 0.089 for the second.

First: ATCTG
Second: GTCTG
The ligation selection enrichment of the first is higher: 0.796 ± 0.041 for the first, 0.554 ± 0.068 for the second.

First: CTCTG
Second: ATCTT
The ligation selection enrichment of the first is higher: 0.298 ± 0.058 for the first, 0.102 ± 0.083 for the second.

CTCTT and TTCTT are within error of each other in ligation selection enrichment: 0.133 ± 0.075 for the first, 0.119 ± 0.006 for the second.

Going from GTCTT to ATGAA, the ligation selection enrichment rises from 0.114 ± 0.069 to 0.823 ± 0.12.

First: CTGAA
Second: GTGAA
The ligation selection enrichment of the first is lower: 0.424 ± 0.0081 for the first, 1.7381 ± 0.00037 for the second.

Compared with TTGAA, CTGAC is lower in ligation selection enrichment: 1.56 ± 0.22 for the first, 1.07 ± 0.085 for the second.

Going from GTGAC to TTGAC, the ligation selection enrichment falls from 4.35 ± 0.17 to 3.32 ± 0.24.

First: ATGAC
Second: GTGAG
The ligation selection enrichment of the first is higher: 1.69 ± 0.044 for the first, 1.24 ± 0.03 for the second.

ATGAG and TTGAG are within error of each other in ligation selection enrichment: 0.834 ± 0.057 for the first, 0.82 ± 0.12 for the second.

Compared with CTGAG, CTGAT is higher in ligation selection enrichment: 0.724 ± 0.054 for the first, 22 ± 5.4 for the second.

Going from GTGAT to ATGAT, the ligation selection enrichment falls from 89.4 ± 3 to 34.6 ± 8.1.

Going from TTGAT to TTGCA, the ligation selection enrichment falls from 29.9 ± 7.4 to 0.683 ± 0.015.

Going from ATGCA to GTGCA, the ligation selection enrichment falls from 0.419 ± 0.021 to 0.307 ± 0.043.

First: CTGCA
Second: TTGCC
The ligation selection enrichment of the first is lower: 0.147 ± 0.0049 for the first, 0.231 ± 0.025 for the second.

Compared with GTGCC, ATGCC is lower in ligation selection enrichment: 0.209 ± 0.022 for the first, 0.176 ± 0.0063 for the second.

First: CTGCC
Second: CTGCG
The ligation selection enrichment of the first is lower: 0.138 ± 0.05 for the first, 0.5 ± 0.22 for the second.

First: TTGCG
Second: GTGCG
The ligation selection enrichment of the first is lower: 0.391 ± 0.012 for the first, 2.12 ± 0.13 for the second.

First: ATGCG
Second: TTGCT
The ligation selection enrichment of the first is higher: 1.74 ± 0.19 for the first, 0.947 ± 0.32 for the second.

CTGCT and GTGCT are within error of each other in ligation selection enrichment: 0.833 ± 0.12 for the first, 0.813 ± 0.23 for the second.

First: ATGCT
Second: ATGGA
The ligation selection enrichment of the first is lower: 0.505 ± 0.074 for the first, 0.662 ± 0.029 for the second.

TTGGA and CTGGA are within error of each other in ligation selection enrichment: 0.294 ± 0.0019 for the first, 0.282 ± 0.086 for the second.

First: GTGGA
Second: TTGGC
The ligation selection enrichment of the first is higher: 1.76 ± 0.068 for the first, 0.191 ± 0.053 for the second.

First: GTGGC
Second: CTGGC
The ligation selection enrichment of the first is higher: 0.18 ± 0.0046 for the first, 0.135 ± 0.021 for the second.

Going from ATGGC to GTGGG, the ligation selection enrichment rises from 0.128 ± 0.0069 to 0.31 ± 0.013.

ATGGG and TTGGG are within error of each other in ligation selection enrichment: 0.265 ± 0.05 for the first, 0.218 ± 0.023 for the second.

First: CTGGG
Second: GTGGT
The ligation selection enrichment of the first is lower: 0.152 ± 0.051 for the first, 0.274 ± 0.0063 for the second.

TTGGT and ATGGT are within error of each other in ligation selection enrichment: 0.212 ± 0.12 for the first, 0.181 ± 0.092 for the second.

Going from CTGGT to TTGTA, the ligation selection enrichment rises from 0.18 ± 0.078 to 0.685 ± 0.11.

GTGTA and ATGTA are within error of each other in ligation selection enrichment: 0.265 ± 0.083 for the first, 0.206 ± 0.024 for the second.

Going from CTGTA to TTGTC, the ligation selection enrichment rises from 0.136 ± 0.0097 to 0.271 ± 0.021.

CTGTC and ATGTC are within error of each other in ligation selection enrichment: 0.18 ± 0.017 for the first, 0.1721 ± 0.0012 for the second.

First: GTGTC
Second: GTGTG
The ligation selection enrichment of the first is lower: 0.144 ± 0.015 for the first, 0.75 ± 0.1 for the second.

Going from ATGTG to TTGTG, the ligation selection enrichment falls from 0.566 ± 0.096 to 0.223 ± 0.015.

CTGTG and TTGTT are within error of each other in ligation selection enrichment: 0.195 ± 0.072 for the first, 0.311 ± 0.15 for the second.

CTGTT and GTGTT are within error of each other in ligation selection enrichment: 0.3 ± 0.027 for the first, 0.277 ± 0.011 for the second.

Going from ATGTT to GTTAA, the ligation selection enrichment rises from 0.166 ± 0.064 to 0.876 ± 0.12.

First: ATTAA
Second: CTTAA
The ligation selection enrichment of the first is higher: 0.524 ± 0.12 for the first, 0.257 ± 0.012 for the second.

Compared with TTTAA, GTTAC is higher in ligation selection enrichment: 0.18 ± 0.0051 for the first, 0.3144 ± 0.0017 for the second.

TTTAC and ATTAC are within error of each other in ligation selection enrichment: 0.218 ± 0.013 for the first, 0.217 ± 0.042 for the second.

Compared with CTTAC, ATTAG is higher in ligation selection enrichment: 0.153 ± 0.015 for the first, 1.02 ± 0.19 for the second.

Going from GTTAG to TTTAG, the ligation selection enrichment falls from 0.728 ± 0.01 to 0.504 ± 0.034.

First: CTTAG
Second: TTTAT
The ligation selection enrichment of the first is lower: 0.243 ± 0.0061 for the first, 1.19 ± 0.53 for the second.

Compared with CTTAT, ATTAT is higher in ligation selection enrichment: 0.512 ± 0.016 for the first, 1.85 ± 0.22 for the second.

First: GTTAT
Second: ATTCA
The ligation selection enrichment of the first is higher: 1.54 ± 0.28 for the first, 0.611 ± 0.08 for the second.

GTTCA and CTTCA are within error of each other in ligation selection enrichment: 0.545 ± 0.029 for the first, 0.45 ± 0.093 for the second.

TTTCA and GTTCC are within error of each other in ligation selection enrichment: 0.268 ± 0.026 for the first, 0.33 ± 0.069 for the second.

CTTCC and TTTCC are within error of each other in ligation selection enrichment: 0.27 ± 0.03 for the first, 0.258 ± 0.0071 for the second.

First: ATTCC
Second: TTTCG
The ligation selection enrichment of the first is lower: 0.246 ± 0.02 for the first, 0.632 ± 0.068 for the second.

ATTCG and GTTCG are within error of each other in ligation selection enrichment: 3.01 ± 0.51 for the first, 2.43 ± 0.41 for the second.

Compared with CTTCG, CTTCT is lower in ligation selection enrichment: 1.47 ± 0.55 for the first, 0.681 ± 0.22 for the second.

GTTCT and ATTCT are within error of each other in ligation selection enrichment: 0.587 ± 0.17 for the first, 0.471 ± 0.21 for the second.

Compared with TTTCT, TTTGA is higher in ligation selection enrichment: 0.249 ± 0.052 for the first, 0.78 ± 0.039 for the second.

Compared with ATTGA, GTTGA is lower in ligation selection enrichment: 6.7 ± 0.45 for the first, 5.22 ± 0.32 for the second.

First: CTTGA
Second: GTTGC
The ligation selection enrichment of the first is higher: 2.2 ± 0.37 for the first, 0.769 ± 0.034 for the second.

ATTGC and CTTGC are within error of each other in ligation selection enrichment: 0.765 ± 0.2 for the first, 0.446 ± 0.26 for the second.

Going from TTTGC to ATTGG, the ligation selection enrichment rises from 0.319 ± 0.085 to 0.805 ± 0.035.

Compared with GTTGG, TTTGG is lower in ligation selection enrichment: 0.739 ± 0.059 for the first, 0.466 ± 0.024 for the second.

Compared with CTTGG, ATTGT is higher in ligation selection enrichment: 0.278 ± 0.035 for the first, 0.543 ± 0.093 for the second.

CTTGT and GTTGT are within error of each other in ligation selection enrichment: 0.413 ± 0.078 for the first, 0.353 ± 0.054 for the second.

First: TTTGT
Second: GTTTA
The ligation selection enrichment of the first is lower: 0.164 ± 0.11 for the first, 0.446 ± 0.026 for the second.

ATTTA and CTTTA are within error of each other in ligation selection enrichment: 0.445 ± 0.1 for the first, 0.398 ± 0.12 for the second.

TTTTA and CTTTC are the same in ligation selection enrichment: 0.205 ± 0.0097 for the first, 0.2049 ± 0.00081 for the second.

ATTTC and GTTTC are within error of each other in ligation selection enrichment: 0.201 ± 0.0059 for the first, 0.169 ± 0.068 for the second.

Going from TTTTC to TTTTG, the ligation selection enrichment rises from 0.167 ± 0.027 to 1.05 ± 0.27.

Compared with ATTTG, GTTTG is lower in ligation selection enrichment: 4.54 ± 1.9 for the first, 2.05 ± 0.47 for the second.

Going from CTTTG to CTTTT, the ligation selection enrichment falls from 1.41 ± 0.7 to 0.63109 ± 0.00025.

Going from ATTTT to TTTTT, the ligation selection enrichment falls from 0.4707 ± 0.0023 to 0.314 ± 0.091.

For GTTTT, the ligation selection enrichment was 0.277 ± 0.048.
